Entries after “also recorded” stand apart in the source; their conditions may differ.
Legend:
PAR [1] = experiment: co-immunoprecipitation with PAR in HeLa cells; format: cell-based
Procedure: The following experiment was performed to confirm whether AIF in fact binds to PAR in intact cells. Applicants exposed HeLa cells stably transduced with lentivirus C-terminal Flag-tagged mouse wild type AIF (WT-AIF-Flag) to MNNG, a DNA alkylating agent that activates PARP-1 and kills cells primarily through parthanatos. […] FIG. 2A comprises two side by side black and white photos of representative gels obtained by Applicants, showing the impact of MNNG upon these HeLa cells (left photo being HeLa cells without MNNG, and right photo being HeLa cells 2 hours after MNNG treatment at 50 μM for 15 min). […] FIG. 2B is a chart reporting the data regarding the relative intensity of the interaction pre and post MNNG for these experiments (*** indicates p<0.001).

[2] = test system: Hq mouse cortical neuronal cultures; experiment: AIF translocation to the nucleus in Hq cortical neurons; format: cell-based
Procedure: Unless otherwise set forth herein, immunocytochemistry, immunohistochemistry and confocal microscopy as referenced in the examples entailed the following materials and procedures. […] AIF was visualized by 2 μg/ml mouse anti-Flag/Cyt AffiniPure Donkey Anti-Mouse IgG or rabbit anti-AIF/Cy3 AffiniPure Donkey Anti-Rabbit IgG. Immunohistochemistry was performed using the antibody against Flag. Immunofluorescence analysis thereafter was carried out by using a LSM510 confocal laser scanning microscope (obtained from Carl Zeiss Microlmaging) as described by H. Wang et al. (J. Neurosci, 2004).
Again, AIF translocation to the nucleus was monitored two hours after NMDA (500 μM, 5 minutes) treatment sufficient to initiate parthanatos in wild-type cells.

HeLa cells = experiment: AIF nuclear translocation in HeLa cells after MNNG; format: cell-based; conditions: MNNG 50 μM for 15 minutes, confocal image analysis
Procedure: Unless otherwise set forth herein, immunocytochemistry, immunohistochemistry and confocal microscopy as referenced in the examples entailed the following materials and procedures. For immunocytochemistry, cells were fixed 2 hours after treatment with 4% paraformaldehyde, permeabilized with 0.05% Triton X-100, and blocked with 3% bovine serum albumin in PBS. AIF was visualized by 2 μg/ml mouse anti-Flag/Cyt AffiniPure Donkey Anti-Mouse IgG or rabbit anti-AIF/Cy3 AffiniPure Donkey Anti-Rabbit IgG. Immunohistochemistry was performed using the antibody against Flag. Immunofluorescence analysis thereafter was carried out by using a LSM510 confocal laser scanning microscope (obtained from Carl Zeiss Microlmaging) as described by H. Wang et al. (J. Neurosci, 2004).

Hq MEFs = experiment: MNNG cytotoxicity in Hq MEFs; format: cell-based, mouse; conditions: Hq MEFs, 24 hours after MNNG 500 μM for 15 min
Procedure: Further, the effect WT-AIF-Flag or Pbm-AIF-Flag on Hq MEF cell viability was determined 24 hours after MNNG (500 μM for 15 min) cytotoxicity with and without zVAD (100 μM), and the results of three trials is reported in FIG. 17B.

Hq cortical neurons = experiment: NMDA excitotoxicity in Hq cortical neurons; format: cell-based, mouse; conditions: lentivirus-transduced Hq cortical neurons, NMDA 500 μM for 5 min, 24, 36, 48 hours
Procedure: HQ cortical neuron cells were transduced with lentivirus carrying WT-AIF-Flag or Pbm-AIF-Flag. Non-transduced neurons and GFP-lentivirus infected cells were used as negative controls. […] In those photos, blue indicates Hoechst 33342 staining and red indicates propidium iodide staining. […] The cytotoxicity in these Hq cortical neurons was measured at 24 hours, 36 hours, and 48 hours after NMDA (500 μM for 5 min) treatment, and the data for this is reported in the graph of FIG. 18B.

Hq mice [3] = experiment: NMDA excitotoxicity in hippocampal CA1 region of Hq mice; format: in vivo, mouse; conditions: AAV2 in CA1, 60 hours after NMDA
Procedure: Seven days following virus injection, Applicants injected NMDA into the right CA1 region and saline into the left CA1 region, and then assessed CA1 lesion volume 60 hours later. […] FIG. 20B is an array of six representative Nissl staining photos taken 60 hours post NMDA injection, while FIG. 20C is a graph of the experimental data obtained for lesion volume percentages.

Hq mice [4] = experiment: NMDA excitotoxicity in striatum of Hq mice
Procedure: 1 μl Lentivirus (5×1010 T.U./ml) carrying WT-AIF-Flag, Pbm-AIF-Flag, or GFP was injected into striatum on both sides of the brain (rostral, 0.4 mm; lateral+/−1.7 mm; ventral 3.5 mm from bregma), and 1 μl AAV2 (1×1013 T.U./ml) carrying WT-AIF-Flag, Pbm-AIF-Flag or GFP was injected into CA1 in hippocampi on both sides of the brain (posterior, 2.0 mm; lateral+/−1.5 mm; ventral 1.5 mm from bregma) using a stereotactic frame (Kopf) (0.02 ml/min). The needle was left in place for an additional 8 minutes after injection. One week after the first injection, 20 nmol NMDA or normal saline in 0.8 μl was injected into the right and left striatum (0.02 μl/min), respectively. The needle was left in place for an additional 8 minutes after injection. Lesion volumes were assessed at 48 hours, 60 hours, or 168 hours after NMDA administration. At the indicated time point after the second injection, the mice were deeply anesthetized, and then perfused with saline and 4% paraformaldehyde. After postfixation and freezing in 20% glycerol-PBS, brain sections (30 μm) were obtained for Nissl staining and immunohistochemistry analysis.
Applicants next assessed whether replacement of WT-AIF-Flag or Pbm-AIF-Flag through lentiviral transduction would restore the sensitivity of Hq mice to NMDA excitotoxicity. […]

[5] = test system: mitochondria of HeLa cells; experiment: in vitro AIF release from mitochondria of HeLa cells; conditions: purified PAR, transiently transfected HeLa cells
Procedure: (§1) Unless otherwise set forth herein, mitochondria isolation and in vitro AIF release assays as referenced in the examples below were performed using the following materials and procedures. Mitochondria were prepared from HeLa cells and cortical neurons as follows by harvesting cells, re-suspending them in 2 ml MIB buffer (10 mM HEPES, pH 7.4, 300 mM sucrose, 1 mM EGTA), and homogenizing by 60 strokes with B type Dounce homogenizer. Nuclei were pelleted at 750×g for 5 minutes and mitochondria were spun down at 3,000×g for 10 minutes. Isolated mitochondria were dissolved in a minimum volume of sucrose buffer (10 mM HEPES, pH 7.4, 300 mM sucrose) and protein concentration was adjusted to 2 mg/ml. […] In vitro AIF release was carried out at room temperature for 30 minutes in assay buffer (20 mM HEPES, pH 7.4, 125 mM KCl, 2 mM K2HPO4, 4 mM MgCl2, 5 mM succinate, 2 mM rotenone, 3 μM ATP and 1 μM ADP) in the presence of 100 nM PAR and 1 mg/ml isolated mitochondria. […]
(§2) Next, Applicants used Hq cortical neurons transduced with WT-AIF-Flag or Pbm-AIF-Flag lentiviruses to determine whether PAR plays a direct role in mitochondrial AIF release. […] Three days after lentivirus infection, mitochondria were isolated and exposed to purified PAR to elicit in vitro AIF release by incubation with PAR for 30 minutes, and the levels of AIF were determined in the mitochondria and in the supernatant.

PAR [6] = experiment: co-immunoprecipitation with PAR in Hq cortical neurons
Procedure: For co-immunoprecipitation, the post-nuclear cell extracts, which is the fraction prepared from whole cell lysates after removing nuclear proteins, were isolated in hypotonic buffer as previously described by S. Andrabi et al., and then incubated overnight with an antibody against PAR in the presence of protein A/G Sepharose (obtained from Santa Cruz Biotechnology, of Santa Cruz, Calif.), followed by immunoblot analysis with mouse anti-Flag antibody (obtained from Sigma). The proteins were separated on denaturing polyacrylamide gel electrophoresis (SDS-PAGE) and transferred to nitrocellulose membrane. […] After washing, the immune complexes were detected by the SuperSignal West Pico Chemiluminescent Substrate. The integrity of the nuclear and postnuclear subcellular fractions was determined by monitoring histone and MnSOD immunoreactivity, respectively.
To determine whether Pbm-AIF fails to bind to PAR in cultured cortical neurons, neuronal cultures were transduced by lentivirus with WT-AIF-Flag or Flag-tagged Pbm-AIF (“Pbm-AIF-Flag”). […] AIF was translocation to the nucleus for each neuron culture was monitored 2 hours after administration of NMDA (500 μM NMDA for 5 minutes). […]

[7] = test system: mitochondria isolated from cortical neurons; experiment: in vitro AIF release from mitochondria of Hq cortical neurons; conditions: incubation with purified PAR for 30 minutes
Procedure: as §1, §2

B1: WT-AIF-Flag: C-terminal Flag-tagged mouse wild type AIF, delivered by lentivirus, AAV2 or transfection (protein, UniProt Q9Z0X1 1-612, looked up)
chain: MFRCGGLAGAFKQKLVPLVRTVYVQRPKQRNRLPGNLFQQWRVPLELQMARQMASSGSSGGKMDNSVLVLIVGLSTIGAGAYAYKTIKEDQKRYNERVMGLGLSPEEKQRRAIASATEGGSVPQIRAPSHVPFLLIGGGTAAFAAARSIRARDPGARVLIVSEDPELPYMRPPLSKELWFSDDPNVTKTLQFRQWNGKERSIYFQPPSFYVSAQDLPNIENGGVAVLTGKKVVHLDVRGNMVKLNDGSQITFEKCLIATGGTPRSLSAIDRAGAEVKSRTTLFRKIGDFRALEKISREVKSITVIGGGFLGSELACALGRKSQASGIEVIQLFPEKGNMGKILPQYLSNWTMEKVKREGVKVMPNAIVQSVGVSGGRLLIKLKDGRKVETDHIVTAVGLEPNVELAKTGGLEIDSDFGGFRVNAELQARSNIWVAGDAACFYDIKLGRRRVEHHDHAVVSGRLAGENMTGAAKPYWHQSMFWSDLGPDVGYEAIGLVDSSLPTVGVFAKATAQDNPKSATEQSGTGIRSESETESEASEITIPPSAPAVPQVPVEGEDYGKGVIFYLRDKVVVGIVLWNVFNRMPIARKIIKDGEQHEDLNEVAKLFNIHED
modifications: full-length C-terminal Flag tag
notes: C-terminal Flag-tagged mouse wild type AIF, delivered by lentivirus, AAV2 or transfection
- change of interaction with PAR following MNNG treatment (PAR [1]; 2 hours after MNNG 50 μM for 15 min): significantly increased
- co-immunoprecipitation with PAR (PAR [1]; postnuclear fractions, non-MNNG- and MNNG-treated HeLa cells): co-immunoprecipitated with PAR in resting cells
- translocation to the nucleus after staurosporine ([2]; 100 nM staurosporine, 24 hours): translocate from the mitochondria to the nucleus
- translocation to the nucleus after NMDA ([2]; two hours after NMDA (500 μM, 5 minutes), immunoblot of fractions or confocal image analysis): translocated to the nucleus; also recorded: observed in the nucleus
- nuclear translocation after MNNG (HeLa cells): translocated to the nucleus 4 hours following MNNG treatment
- effect on MNNG-induced cell death (Hq MEFs): restored their susceptibility to MNNG toxicity
- effect on susceptibility to NMDA excitotoxicity (Hq cortical neurons): restored Hq cortical neuron susceptibility to NMDA excitotoxicity
- CA1 lesion volume (Hq mice [3]): large lesion volume
- sensitivity to NMDA excitotoxicity (lesion volume) (Hq mice [4]; lentivirus in striatum, NMDA 20 nmol, 48 hours or 60 hours): restored sensitivity to NMDA excitotoxicity
- survival after the NMDA injection (Hq mice [4]; lentivirus-injected Hq mice, WT-AIF-Flag with one exception): < 168 h
- PAR-induced release from mitochondria [5]: induced the release
- change of interaction with PAR following NMDA treatment (PAR [6]; 2 hours after 500 μM NMDA for 5 minutes): significantly increased
- co-immunoprecipitation with PAR (PAR [6]; postnuclear fractions, non-NMDA- and NMDA-treated cultures): pulled down
- PAR-induced release from mitochondria [7]: induced the release

— patent publication US20120122765A1, “COMPOUNDS AND RELATED METHODS FOR MANIPULATING PARP-1-DEPENDENT CELL DEATH” (priority 2010, published 2012)
